From publication doi:10.1101/2022.11.23.517371 come the findings set out here.

The experiment concerns the target nicotinate-nucleotide pyrophosphorylase (NMnPP) (Saccharomyces cerevisiae S288c) (UniProt P43619). Put plainly: negative-stain TEM.

As usually defined, the stoichiometry N is the number of molecules, sites or subunits per partner or assembly.

“nicotinate-nucleotide pyrophosphorylase (NMnPP) (from UniProt P43619 1-295) (enzyme)”: the stoichiometry N was determined as 6.
